Measurements published in patent US20140273151.

Molecular target: T1, Substrate No. 19
T1 chain: DEVD

B1: caspase-3 enzyme (Biovision Inc., Mountain View, Calif.) (protein)
chain: SGISLDNSYKMDYPEMGLCIIINNKNFHKSTGMTSRSGTDVDAANLRETFRNLKYEVRNKNDLTREEIVELMRDVSKEDHSKRSSFVCVLLSHGEEGIIFGTNGPVDLKKITNFFRGDRCRSLTGKPKLFIIQACRGTELDCGIETDSGVDDDMACHKIPVEADFLYAYSTAPGYYSWRNSKDGSWFIQSLCAMLKQYADKLEFMHILTRVNRKVATEFESFSFDATFHAKKQIPCIVSMLTKELYFYH
fluorescence signal over time (excitation 485 nm, emission 530 nm) in the presence of dsDNA; enzymatic cleavage assay: The data demonstrates that Substrate No. 19 is a substrate for caspase-3 enzyme.
